Experimental data reported in publication PMC7948490 (2020).

Tests used:
[1] = biological target: T1, F-actin (alpha-actin, skeletal muscle) (Gallus gallus, UniProt P68139); assay: kinetic global fit (KinTek Explorer)
[2] = biological target: T1, F-actin (alpha-actin, skeletal muscle); assay: kinetic global fit (KinTek Explorer), no nucleotide
[3] = biological target: T1, F-actin (alpha-actin, skeletal muscle); assay: stopped-flow pyrene-actin fluorescence (k-A/k+A), 20 °C, no nucleotide

Kd [1] | Kd [2] | Kd [3] | Binder
10.8 µM | 13 nM | 13.7 nM | Myosin-1C0-ΔTH1 isoform C0 lacking TH1 domain (protein) MESALTARDRVGVQDFVLLENFTSEAAFIENLRRRFRENLIYTYIGPVLVSVNPYRDLQIYSRQHMERYRGVSFYEVPPHLFAVADTVYRALRTERRDQAVMISGESGAGKTEATKRLLQFYAETCPAPERGGAVRDRLLQSNPVLEAFGNAKTLRNDNSSRFGKYMDVQFDFKGAPVGGHILSYLLEKSRVVHQNHGERNFHIFYQLLEGGEEETLRRLGLERNPQSYLYLVKGQCAKVSSINDKSDWKVVRKALTVIDFTEDEVEDLLSIVASVLHLGNIHFAANEESNAQVTTENQLKYLTRLLSVEGSTLREALTHRKIIAKGEELLSPLNLEQAAYARDALAKAVYSRTFTWLVGKINRSLASKDVESPSWRSTTVLGLLDIYGFEVFQHNSFEQFCINYCNEKLQQLFIELTLKSEQEEYEAEGIAWEPVQYFNNKIICDLVEEKFKGIISILDEECLRPGEATDLTFLEKLEDTVKHHPHFLTHKLADQRTRKSLGRGEFRLLHYAGEVTYSVTGFLDKNNDLLFRNLKETMCSSKNPIMSQCFDRSELSDKKRPETVATQFKMSLLQLVEILQSKEPAYVRCIKPNDAKQPGRFDEVLIRHQVKYLGLLENLRVRRAGFAYRRKYEAFLQRYKSLCPETWPTWAGRPQDGVAVLVRHLGYKPEEYKMGRTKIFIRFPKTLFATEDALEVRRQSLATKIQAAWRGFHWRQKFLRVKRSAICIQSWWRGTLGRRKAAKRKWAAQTIRRLIRGFVLRHAPRCPENAFFLDHVRTSFLLNLRRQLPQNVLDTSWPTPPPALREASELLRELCIKNMVWKYCRSISPEWKQQLQQKAVASEIFKGK
22.2 µM | 16.3 nM | 16.9 nM | Myosin-1C35-ΔTH1 isoform C35 lacking TH1 domain (protein) MALQVELVPTGEIIRVVHPHRPCKLALGSDGVRVTMESALTARDRVGVQDFVLLENFTSEAAFIENLRRRFRENLIYTYIGPVLVSVNPYRDLQIYSRQHMERYRGVSFYEVPPHLFAVADTVYRALRTERRDQAVMISGESGAGKTEATKRLLQFYAETCPAPERGGAVRDRLLQSNPVLEAFGNAKTLRNDNSSRFGKYMDVQFDFKGAPVGGHILSYLLEKSRVVHQNHGERNFHIFYQLLEGGEEETLRRLGLERNPQSYLYLVKGQCAKVSSINDKSDWKVVRKALTVIDFTEDEVEDLLSIVASVLHLGNIHFAANEESNAQVTTENQLKYLTRLLSVEGSTLREALTHRKIIAKGEELLSPLNLEQAAYARDALAKAVYSRTFTWLVGKINRSLASKDVESPSWRSTTVLGLLDIYGFEVFQHNSFEQFCINYCNEKLQQLFIELTLKSEQEEYEAEGIAWEPVQYFNNKIICDLVEEKFKGIISILDEECLRPGEATDLTFLEKLEDTVKHHPHFLTHKLADQRTRKSLGRGEFRLLHYAGEVTYSVTGFLDKNNDLLFRNLKETMCSSKNPIMSQCFDRSELSDKKRPETVATQFKMSLLQLVEILQSKEPAYVRCIKPNDAKQPGRFDEVLIRHQVKYLGLLENLRVRRAGFAYRRKYEAFLQRYKSLCPETWPTWAGRPQDGVAVLVRHLGYKPEEYKMGRTKIFIRFPKTLFATEDALEVRRQSLATKIQAAWRGFHWRQKFLRVKRSAICIQSWWRGTLGRRKAAKRKWAAQTIRRLIRGFVLRHAPRCPENAFFLDHVRTSFLLNLRRQLPQNVLDTSWPTPPPALREASELLRELCIKNMVWKYCRSISPEWKQQLQQKAVASEIFKGK
